The supplement of paper PMC11780869

system: Bacillus subtilis; assay: cleaved RNA product abundance (RNA/gDNA barcode ratio) relative to median wild-type variant (ratio to wild type); higher = more accumulation of the downstream cleavage product; conditions: experiment (reporter, strain, medium): exp 8a: truncated aprE reporter, strain BJT201 with 2% xylose (RNase J1 expressed); cleavage site: glnRA (positions -5 to +31 mutated)
How it was run: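 Cleaved product abundance is expressed as the RNA:gDNA barcode ratio per construct, scaled to the median construct carrying the unmutated site. The constructs were barcoded, mutagenized RNase Y cleavage-site windows in truncated aprE or tetM reporter mRNAs integrated into the B. subtilis chromosome. Cultures grew in LB at 37°C from OD600 0.0003 to 0.3 before cleaved RNA was gel-selected and barcode-sequenced.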

Row | Sequence | cleaved RNA product abundance
1 | CGACATGTCCCGCTTCTTTCATTAATCCGTTAGCAACTGTTTTACTATATACATCTACCTTTTAAGAGGAGGAAT | 0.506
2 | CGACATGTCCCGCTTCTTTCATTAATCCGTTAGCAACTGTTTTACTATATACATGTACCTTTTAAGAGGAGGAAT | 0.471
3 | CGACATGTCCCGCTTCTTTCATTAATCCGTTAGCAACTGTTTTACTATATACATTCACCTTTTAAGAGGAGGAAT | 0.4
4 | CGACATGTCCCGCTTCTTTCATTAATCCGTTAGCAACTGTTTTACTATATACATTTAACTTTTAAGAGGAGGAAT | 0.539
5 | CGACATGTCCCGCTTCTTTCATTAATCCGTTAGCAACTGTTTTACTATATACATTTACATTTTAAGAGGAGGAAT | 0.688
6 | CGACATGTCCCGCTTCTTTCATTAATCCGTTAGCAACTGTTTTACTATATACATTTACCCTTTAAGAGGAGGAAT | 0.921
7 | CGACATGTCCCGCTTCTTTCATTAATCCGTTAGCAACTGTTTTACTATATACATTTACCTTTTAAGAGGAGGAAT | 0.619
8 | CGACATGTCCCGCTTCTTTCATTAATCCGTTAGCAACTGTTTTACTATATACATTTACGTTTTAAGAGGAGGAAT | 0.77
9 | CGACATGTCCCGCTTCTTTCATTAATCCGTTAGCAACTGTTTTACTATATACATTTACTTTTTAAGAGGAGGAAT | 0.621
10 | CGACATGTCCCGCTTCTTTCATTAATCCGTTAGCAACTGTTTTACTATATACATTTATCTTTTAAGAGGAGGAAT | 0.588
11 | CGACATGTCCCGCTTCTTTCATTAATCCGTTAGCAACTGTTTTACTATATACATTTTCCTTTTAAGAGGAGGAAT | 0.458
12 | CGACATGTCCCGCTTCTTTCATTAATCCGTTAGCAACTGTTTTACTATATACGTTTACCTTTTAAGAGGAGGAAT | 0.455
13 | CGACATGTCCCGCTTCTTTCATTAATCCGTTAGCAACTGTTTTACTATATATATTTACCTTTTAAGAGGAGGAAT | 0.708
14 | CGACATGTCCCGCTTCTTTCATTAATCCGTTAGCAACTGTTTTACTATATTCATTTACCTTTTAAGAGGAGGAAT | 0.189
15 | CGACATGTCCCGCTTCTTTCATTAATCCGTTAGCAACTGTTTTACTCTATACATTTACCTTTTAAGAGGAGGAAT | 0.597
16 | CGACATGTCCCGCTTCTTTCATTAATCCGTTAGCAACTGTTTTATTATATACATTTACCTTTTAAGAGGAGGAAT | 0.698
17 | CGACATGTCCCGCTTCTTTCATTAATCCGTTAGCAACTGTTTTCCTAAATACATTTACCTTTTAAGAGGAGGAAT | 0.23
18 | CGACATGTCCCGCTTCTTTCATTAATCCGTTAGCAACTGTTTTCCTATAAACATTTACCTTTTAAGAGGAGGAAT | 0.526
19 | CGACATGTCCCGCTTCTTTCATTAATCCGTTAGCAACTGTTTTCCTATAGACATTTACCTTTTAAGAGGAGGAAT | 0.36
20 | CGACATGTCCCGCTTCTTTCATTAATCCGTTAGCAACTGTTTTCCTATATACATATACCTTTTAAGAGGAGGAAT | 0.353
21 | CGACATGTCCCGCTTCTTTCATTAATCCGTTAGCAACTGTTTTCCTATATACATTAACCTTTTAAGAGGAGGAAT | 0.43
22 | CGACATGTCCCGCTTCTTTCATTAATCCGTTAGCAACTGTTTTCCTATATACATTCACCTTTTAAGAGGAGGAAT | 0.346

Row | Sequence | cleaved RNA product abundance
23 | CGACATGTCCCGCTTCTTTCATTAATCCGTTAGCAACTGTTTTCCTATATACATTTACATTTTAAGAGGAGGAAT | 0.549
24 | CGACATGTCCCGCTTCTTTCATTAATCCGTTAGCAACTGTTTTCCTATATACATTTACCTTTTAAGAGGAGGAAT | 0.539
25 | CGACATGTCCCGCTTCTTTCATTAATCCGTTAGCAACTGTTTTCCTATATACATTTACTTTTTAAGAGGAGGAAT | 0.31
26 | CGACATGTCCCGCTTCTTTCATTAATCCGTTAGCAACTGTTTTCCTATATACATTTATCTTTTAAGAGGAGGAAT | 0.55
27 | CGACATGTCCCGCTTCTTTCATTAATCCGTTAGCAACTGTTTTCCTATATACGTTTACCTTTTAAGAGGAGGAAT | 0.26
28 | CGACATGTCCCGCTTCTTTCATTAATCCGTTAGCAACTGTTTTCCTATATATATTTACCTTTTAAGAGGAGGAAT | 0.505
29 | CGACATGTCCCGCTTCTTTCATTAATCCGTTAGCAACTGTTTTGAAATATACATTTACCTTTTAAGAGGAGGAAT | 0.462
30 | CGACATGTCCCGCTTCTTTCATTAATCCGTTAGCAACTGTTTTGATAAATACATTTACCTTTTAAGAGGAGGAAT | 0.384
31 | CGACATGTCCCGCTTCTTTCATTAATCCGTTAGCAACTGTTTTGATATAAACATTTACCTTTTAAGAGGAGGAAT | 0.399
32 | CGACATGTCCCGCTTCTTTCATTAATCCGTTAGCAACTGTTTTGATATATAAATTTACCTTTTAAGAGGAGGAAT | 0.397
33 | CGACATGTCCCGCTTCTTTCATTAATCCGTTAGCAACTGTTTTGATATATACACTTACCTTTTAAGAGGAGGAAT | 0.313
34 | CGACATGTCCCGCTTCTTTCATTAATCCGTTAGCAACTGTTTTGATATATACATATACCTTTTAAGAGGAGGAAT | 0.572
35 | CGACATGTCCCGCTTCTTTCATTAATCCGTTAGCAACTGTTTTGATATATACATCTACCTTTTAAGAGGAGGAAT | 0.44
36 | CGACATGTCCCGCTTCTTTCATTAATCCGTTAGCAACTGTTTTGATATATACATTAACCTTTTAAGAGGAGGAAT | 0.832
37 | CGACATGTCCCGCTTCTTTCATTAATCCGTTAGCAACTGTTTTGATATATACATTTACATTTTAAGAGGAGGAAT | 0.372
38 | CGACATGTCCCGCTTCTTTCATTAATCCGTTAGCAACTGTTTTGATATATACATTTACCTTTTAAGAGGAGGAAT | 0.503
39 | CGACATGTCCCGCTTCTTTCATTAATCCGTTAGCAACTGTTTTGATATATACATTTATCTTTTAAGAGGAGGAAT | 0.509
40 | CGACATGTCCCGCTTCTTTCATTAATCCGTTAGCAACTGTTTTGATATATACATTTGCCTTTTAAGAGGAGGAAT | 0.378
41 | CGACATGTCCCGCTTCTTTCATTAATCCGTTAGCAACTGTTTTGATATATACATTTTCCTTTTAAGAGGAGGAAT | 0.376
42 | CGACATGTCCCGCTTCTTTCATTAATCCGTTAGCAACTGTTTTGATATATATATTTACCTTTTAAGAGGAGGAAT | 0.766
43 | CGACATGTCCCGCTTCTTTCATTAATCCGTTAGCAACTGTTTTGATATTTACATTTACCTTTTAAGAGGAGGAAT | 0.18
44 | CGACATGTCCCGCTTCTTTCATTAATCCGTTAGCAACTGTTTTGCAATAAACATTTACCTTTTAAGAGGAGGAAT | 0.232

Row | Sequence | cleaved RNA product abundance
45 | CGACATGTCCCGCTTCTTTCATTAATCCGTTAGCAACTGTTTTGCAATATACATTAACCTTTTAAGAGGAGGAAT | 0.691
46 | CGACATGTCCCGCTTCTTTCATTAATCCGTTAGCAACTGTTTTGCAATATACATTTACCATTTAAGAGGAGGAAT | 0.562
47 | CGACATGTCCCGCTTCTTTCATTAATCCGTTAGCAACTGTTTTGCAATATACATTTACCCTTTAAGAGGAGGAAT | 0.405
48 | CGACATGTCCCGCTTCTTTCATTAATCCGTTAGCAACTGTTTTGCAATATACATTTACCTTTTAAGAGGAGGAAT | 0.436
49 | CGACATGTCCCGCTTCTTTCATTAATCCGTTAGCAACTGTTTTGCAATATACATTTAGCTTTTAAGAGGAGGAAT | 0.72
50 | CGACATGTCCCGCTTCTTTCATTAATCCGTTAGCAACTGTTTTGCAATATACATTTATCTTTTAAGAGGAGGAAT | 0.505
51 | CGACATGTCCCGCTTCTTTCATTAATCCGTTAGCAACTGTTTTGCAATATACATTTCCCTTTTAAGAGGAGGAAT | 0.589
52 | CGACATGTCCCGCTTCTTTCATTAATCCGTTAGCAACTGTTTTGCAATATACCTTTACCTTTTAAGAGGAGGAAT | 0.29
53 | CGACATGTCCCGCTTCTTTCATTAATCCGTTAGCAACTGTTTTGCAATATAGATTTACCTTTTAAGAGGAGGAAT | 0.599
54 | CGACATGTCCCGCTTCTTTCATTAATCCGTTAGCAACTGTTTTGCAATATATATTTACCTTTTAAGAGGAGGAAT | 0.379
55 | CGACATGTCCCGCTTCTTTCATTAATCCGTTAGCAACTGTTTTGCAATATCCATTTACCTTTTAAGAGGAGGAAT | 0.156
56 | CGACATGTCCCGCTTCTTTCATTAATCCGTTAGCAACTGTTTTGCCACGTACATTTACCTTTTAAGAGGAGGAAT | 0.0527
57 | CGACATGTCCCGCTTCTTTCATTAATCCGTTAGCAACTGTTTTGCCAGATACATTTACCTTTTAAGAGGAGGAAT | 0.286
58 | CGACATGTCCCGCTTCTTTCATTAATCCGTTAGCAACTGTTTTGCCATATACACTTACCTTTTAAGAGGAGGAAT | 0.161
59 | CGACATGTCCCGCTTCTTTCATTAATCCGTTAGCAACTGTTTTGCCATATACATATACCTTTTAAGAGGAGGAAT | 0.198
60 | CGACATGTCCCGCTTCTTTCATTAATCCGTTAGCAACTGTTTTGCCATATACATTTAACTTTTAAGAGGAGGAAT | 0.406
61 | CGACATGTCCCGCTTCTTTCATTAATCCGTTAGCAACTGTTTTGCCATATACATTTACATTTTAAGAGGAGGAAT | 0.355
62 | CGACATGTCCCGCTTCTTTCATTAATCCGTTAGCAACTGTTTTGCCATATACATTTACCGTTTAAGAGGAGGAAT | 0.539
63 | CGACATGTCCCGCTTCTTTCATTAATCCGTTAGCAACTGTTTTGCCATATACATTTACCTTTTAAGAGGAGGAAT | 0.205
64 | CGACATGTCCCGCTTCTTTCATTAATCCGTTAGCAACTGTTTTGCCATATACATTTACGTTTTAAGAGGAGGAAT | 0.6
65 | CGACATGTCCCGCTTCTTTCATTAATCCGTTAGCAACTGTTTTGCCATATACGTTTACCTTTTAAGAGGAGGAAT | 0.0858
66 | CGACATGTCCCGCTTCTTTCATTAATCCGTTAGCAACTGTTTTGCGATATACATTAACCTTTTAAGAGGAGGAAT | 0.781
